Measured values as given in publication doi:10.1101/2022.02.11.480038, “Phosphorylation by casein kinase 2 ensures ER-phagy receptor TEX264 binding to ATG8 proteins” (bioRxiv, 2022).
Where no end group is shown, it is not given here. [ ]: non-standard residue; d: D form. pS = N[C@@H](COP(=O)(O)O)C(=O)O

Columns and labels:
[1] = molecular target: Human LC3B (residues 1-120) (human, UniProt Q9GZQ8 1-120); experiment: ITC; Microcal iTC200, 25°C; TEX264 peptides 0.5 mM in the syringe, LC3B or GABARAP in the cell at 10-times lower concentration; single-site binding model; conditions: both partners purified
[2] = molecular target: T1, Human GABARAP (residues 1-116) (human, UniProt O95166 1-116); experiment: as above; conditions: both partners purified
T1 construct: GABARAP, human, residues 1-116; source: prepared as described previously (Mochida et al., 2020), purified
T1 sequence (O95166 1-116): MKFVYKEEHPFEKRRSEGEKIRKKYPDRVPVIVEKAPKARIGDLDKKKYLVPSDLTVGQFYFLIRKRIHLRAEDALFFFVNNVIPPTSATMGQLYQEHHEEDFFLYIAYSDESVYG

B1: TEX264 peptide (residues 269-278) with S272 phosphorylation (p-S272) (peptide)
peptide: SGS[pS]FEELDL
notes: also called p-Ser272; source: synthetic peptide, bought: GenScript; passed over Superdex peptide
- fold enhancement of affinity over the unphosphorylated peptide [1]: 37 fold
- fold enhancement of affinity over the unphosphorylated peptide [2]: 23 fold

B2: phosphomimetic TEX264^(S271D, S272D) peptide (2SD-LIR) (peptide, UniProt Q9Y6I9 269-278, looked up)
peptide: SGDDFEELDL
notes: also called 2D-LIR; source: synthetic peptide, bought: GenScript; passed over Superdex peptide
- binding result [1]: binds
- fold enhancement of affinity over the unmodified peptide [2]: ~20 fold

B3: phosphomimetic TEX264^(S269D, S271D, S272D) peptide (3SD-LIR) (peptide, UniProt Q9Y6I9 269-278, looked up)
peptide: DGDDFEELDL
notes: also called 3D-LIR; source: synthetic peptide, bought: GenScript; passed over Superdex peptide
- binding result [1]: binds
- fold enhancement of affinity over the unmodified peptide [2]: ~20 fold

B4: phosphomimetic TEX264^(S271, 272E) peptide (2SE-LIR) (peptide, UniProt Q9Y6I9 269-278, looked up)
peptide: SGEEFEELDL
notes: also called 2E-LIR; source: synthetic peptide, bought: GenScript; passed over Superdex peptide
- binding result [1]: binds
- fold enhancement of affinity over the unmodified peptide [2]: ~20 fold

B5: phosphomimetic TEX264^(S269E, S271E, S272E) peptide (3SE-LIR) (peptide, UniProt Q9Y6I9 269-278, looked up)
peptide: EGEEFEELDL
notes: also called 3E-LIR; source: synthetic peptide, bought: GenScript; passed over Superdex peptide
- binding result [1]: binds
- fold enhancement of affinity over the unmodified peptide [2]: ~20 fold

B6: TEX264 LIR peptide (residues 266-278) with S266 phosphorylation (p-S266) (peptide)
peptide: [pS]GASGSSFEELDL
notes: source: synthetic peptide, bought: GenScript; passed over Superdex peptide
- fold enhancement of affinity over the unphosphorylated peptide [1]: 1.8 fold
- fold enhancement of affinity over the unphosphorylated peptide [2]: 6.5 fold
